The target in assay [1] is T1, CD138 on the surface of U266 cells (CD138+ human lymphoblastic myeloma cell line) (human, UniProt P18827 23-310).
T1 construct: whole, on cells; also called cell surface CD138; membrane CD138
T1 sequence (looked up): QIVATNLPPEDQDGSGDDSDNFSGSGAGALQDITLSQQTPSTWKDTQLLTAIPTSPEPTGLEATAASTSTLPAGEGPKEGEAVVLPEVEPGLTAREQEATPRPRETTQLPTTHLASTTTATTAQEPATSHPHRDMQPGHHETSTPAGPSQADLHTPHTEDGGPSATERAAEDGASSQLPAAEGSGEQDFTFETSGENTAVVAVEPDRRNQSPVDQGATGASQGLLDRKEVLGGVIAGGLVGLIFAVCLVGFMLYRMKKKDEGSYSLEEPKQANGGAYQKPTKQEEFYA
Put plainly: flow cytometry on U266 cells at pH 6.0, MFI against antibody concentration (0.01-10 ug/mL). Here is the method: (§1) Antibody binding to membrane CD138 was evaluated using the CD138+ human lymphoblastic myeloma cell line (U266) and quantified by flow cytometry. Cells were grown in RPMI1640 with 10% FBS. […] Cells were washed (1X) with same pH-matched buffer (and as throughout the experiment) followed by incubation with secondary (detection) goat anti-human Fab( Jackson Immuno Research) conjugated with Alexa Fluor-488 for 30 minutes also at either pH 6.0 or 7.4. Cells were washed once more and resuspended in matching pH buffer and evaluated by flow cytometry. Antibody cell binding was reported as geometric mean fluorescence intensity (MFI). Dose-response curves were generated using GraphPad Prism. Binding data were plotted using nonlinear regression analysis and a 4-parameter curve fit.

In assay [2] the target is T2, Biotinylated recombinant soluble human CD138 extracellular domain (Sino Biological, Cat. 11429-H08H) (human, UniProt P18827 18-251, biotin (EZ-Link NHS-SS-PEG4 Biotin) on primary amino groups of lysines, protein:biotin 1:20).
T2 construct: range 18-251; Bought reagent; The limits are printed as approximate; also called biotinylated CD138; recombinant CD138
T2 sequence (looked up): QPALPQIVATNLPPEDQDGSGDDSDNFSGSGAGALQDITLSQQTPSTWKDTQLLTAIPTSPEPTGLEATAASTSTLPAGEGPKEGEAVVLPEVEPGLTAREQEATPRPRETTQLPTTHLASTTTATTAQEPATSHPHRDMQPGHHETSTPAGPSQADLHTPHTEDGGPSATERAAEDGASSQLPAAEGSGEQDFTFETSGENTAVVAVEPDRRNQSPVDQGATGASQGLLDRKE
Put plainly: BLI (Octet): biotinylated CD138 (10 nM) on streptavidin tips, antibody 12.5 and 25 nM, pH 6.0, 1:1 fit. The procedure: (§2) Binding experiments were carried using assay buffer comprised of 100 mM Sodium Phosphate+ 150 mM NaCl + 0.02% Tween-20 and adjusted to target pH of 7.4, 6.0, 6.4, or 6 using appropriate ratios of monobasic and dibasic sodium phosphate buffer. 25 nM biotinylated CD138 was loaded onto Streptavidin capture Octet (SA) tips for 120 seconds (antigen loading step) followed by antibody binding for associated for 300 seconds (association step), and subsequently dissociation for 300 seconds (dissociation step). All steps were carried out at the respective target pH using the corresponding pH adjusted buffers.
(§3) Modifications to this protocol included lowering the loading concentration of biotinylated CD138 from 25 nM to 10 nM and varying the test antibody concentrations ranging from 25 nM down to 0.8 nM (as 2-fold dilutions). The rationale for doing so was to potentially reduce any target avidity effects while also looking at the analyte concentration dependency.
(§4) Data were analyzed for purposes of calculating approximate kinetic binding parameters and apparent binding affinities based on these rates. Data was fit assuming a 1:1 binding model.
In general terms: BLI is a label-free optical method that tracks binding on a fibre tip over time.

The target in assay [3] is T3, Recombinant soluble human CD138 extracellular domain (analyte in SPR) (human, UniProt P18827 23-254).
T3 construct: extracellular domain; also called recombinant CD138 (the antigen)
T3 sequence (looked up): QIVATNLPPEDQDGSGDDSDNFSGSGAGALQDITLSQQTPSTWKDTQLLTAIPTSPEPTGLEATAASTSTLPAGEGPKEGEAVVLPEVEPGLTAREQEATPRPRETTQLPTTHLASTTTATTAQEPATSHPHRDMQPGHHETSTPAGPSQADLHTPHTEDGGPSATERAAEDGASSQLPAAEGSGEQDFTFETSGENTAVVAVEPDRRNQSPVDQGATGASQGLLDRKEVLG
Put plainly: SPR (Carterra LSA): antibody captured by anti-human IgG, CD138 as analyte, pH 6.0, 1:1 fit; pH 6.0, SPR. The source says:
(§5) This method as described, immobilizes the target (recombinant CD138) through biotinylation-streptavidin capture. Such a method may, in principle, lead to biases in binding due to either chemical modification of the capture ligand and/or avidity effects due to immobilization of this ligand on the biosensor. Moreover, this method depends on diffusion-based principles of dissociation leading to non-equilibrium binding states. Surface plasmon resonance is an orthogonal, commonly used method for determining binding kinetics and deriving affinity values based on these parameters. In this method, antibodies were directly coupled to the sensor chip and probed with several concentrations of recombinant CD138 (the antigen) varying from 100 nM to 41 nM. This evaluation was completed under two different pH conditions, i.e., pH 6.0 and pH […].
(§6) Antibody-CD138 binding was evaluated on a Carterra LSA high throughput SPR instrument. Binding experiments were carried out using binding buffer comprising 100 mM sodium phosphate, 150 mM NaCl and 0.05% Tween-20 buffer. Buffers were adjusted to target pH of 7.4 and 6.0, by use of sodium hydroxide or HCL, respectively. All steps were also carried out independently at these respective buffer pHs. Antibodies were captured on the SPR (CMDP) chip using an anti-human IgG covalently coupled to the CMDP chip based on standard protocols, as described by the instrument manufacturer, and to create a uniform lawn on the chip surface at a target 25 nM anti-CD138 antibody concentration. Binding to CD138 was achieved by uniformly passing binding analyte with increasing concentrations of CD138 (41 nM-100 nM) for 15 minutes and allowing dissociation for 20 minutes. Analyte was flowed over the chip at a rate of 2 milliliters/minute. Raw binding data were processed using kinetics data analysis software also provided by the manufacturer (Carterra) following as 2X background subtraction that used the first six injections of buffer blanks and the internal machine reference controls. Kinetic data was analysed using a global fit and assuming a 1:1 binding interaction. Further analysis of individual binding curves (sensorgrams) with best fits were used to refine the calculation of kinetic parameters.

The target in assay [4] is T2, Biotinylated recombinant soluble human …. Put plainly: BLI (Octet): biotinylated CD138 (10 nM) on streptavidin tips, antibody 12.5 and 25 nM, pH 6.0, 1:1 fit; pH 6.0. Here is the method:
as §2, §3, §4

Assay [5] addresses T3, Recombinant soluble human CD138 …. Put plainly: SPR (Carterra LSA): antibody captured by anti-human IgG, CD138 as analyte, pH 7.4, 1:1 fit.
From the text: as §5, §6

Assay [6] shares this target. Put plainly: SPR (Carterra LSA): antibody captured by anti-human IgG, CD138 as analyte, pH 6.0, 1:1 fit.
From the text: as §5
Antibody-CD138 binding was evaluated on a Carterra LSA high throughput SPR instrument. Binding experiments were carried out using binding buffer comprising 100 mM sodium phosphate, 150 mM NaCl and 0.05% Tween-20 buffer. Buffers were adjusted to target pH of 7.4 and 6.0, by use of sodium hydroxide or HCL, respectively. All steps were also carried out independently at these respective buffer pHs. […] Kinetic data was analysed using a global fit and assuming a 1:1 binding interaction. […]

Assay [7] addresses T1, CD138 on the surface of U266 cells …. Put plainly: flow cytometry on U266 cells at pH 6.5, MFI against antibody concentration (about 0.03-30 ug/mL). (Flow cytometry measures light scatter and fluorescence of single cells or particles in a stream.)
The target is the same in assay [8]. Put plainly: flow cytometry on U266 cells at pH 6, MFI against antibody concentration (about 0.03-30 ug/mL). Here is the method: as §1
(§7) Binding was evaluated as described.

The target is the same in assay [9]. Put plainly: flow cytometry on U266 cells at pH 7.4, MFI against antibody concentration (about 0.03-30 ug/mL). Here is the method:
as §1, §7

The target is the same in assay [10]. Put plainly: flow cytometry on U266 cells at pH 7, MFI against antibody concentration (about 0.03-30 ug/mL). Here is the method: as §1, §7
The target is the same in assay [11]. Put plainly: flow cytometry on U266 cells at pH 6.0, MFI against antibody concentration (0.04-10 ug/mL shown). The procedure:
as §1

Nine molecules from patent US20230348614A1 (VISTERRA, published 2023) can be followed below.

Where a chain is given by its changes, count along the chain named.

B1: Ab175 (antibody, V domains shown)
VH: EVQLVQSGAEVKKPGASVKVSCKASGYSFSSYYMHWVRQAPGQGLEWMGTIHPSDSTTNYNQKFQGRVTMTVDTSTRTAYMELSSLRSEDTAVYYCADFLYWGQGTTVTVSS
VL: DIVMTQTPLSLSVTPGQPASISCKSSKSLLYKDGHTYLNWFLQKPGQSPQLLIYVVSTRASGVPDRFSGSGSGTDFTLKISRVEAEDVGVYYCQQLVEYPYTFGQGTKLEIK
notes: also called mAb Ab175
The term EC50 (read off the curve) denotes the midpoint of the concentration-response curve. A lower EC50 (read off the curve) goes with greater potency. B1: the “EC50 (read off the curve)” value in assay [1] is roughly 0.2 mg/L.

B2: Antibody Ab30 (antibody, V domains shown)
VH: B1 VH with S54E, L100V
VL: B1 VL with H35K
By Kd is commonly meant the constant that tells how readily two partners part at equilibrium. Usually koff stands for the first-order rate constant of dissociation. One may read the kon as the rate constant with which the complex forms. As to B2, in assay [2], the Kd was determined as 4.6 nM, the off-rate constant (koff) was 0.0034 s⁻¹ and the on-rate (kon) is 720000 M⁻¹ s⁻¹.

B3: Antibody Ab17 (antibody, V domains shown)
VH: B1 VH with L100V
VL: B1 VL
notes: also called mAb 17; Mab 17
On to B3, for which the concentration for a half-maximal effect (EC50 (read off the curve)) in [1] was roughly 0.5 mg/L. In assay [3], the dissociation constant (Kd) was determined as 16 nM, the off-rate (koff) came out at 0.0026 s⁻¹ and the kon is 170000 M⁻¹ s⁻¹. In assay [4], the Kd was 6.2 nM, the off-rate constant (koff) worked out at 0.0051 s⁻¹ and the kon stood at 860000 M⁻¹ s⁻¹.

B4: Antibody Ab71 (antibody, V domains shown)
VH: B1 VH with E1Q, T50D, D98N, L100V
VL: B1 VL with H35K
Take B4: the equilibrium dissociation constant (Kd) was found to be 21 nM in assay [5] and 0.98 nM in assay [2]. The figures for the koff in assay [5], in [6] and in [2] were 0.00028 s⁻¹, 0.0018 s⁻¹ and 0.0011 s⁻¹, respectively. The kon amounted to 10000 M⁻¹ s⁻¹ in assay [5], 300000 M⁻¹ s⁻¹ in [6] and 1.2e+06 M⁻¹ s⁻¹ in assay [2].

B5: Antibody Ab137 (antibody, V domains shown)
VH: B1 VH with E1Q, D98N, L100V
VL: B1 VL with H35K, Y54D
On to B5, for which, in assay [3], the dissociation constant Kd turned out to be 16 nM, the off-rate constant (koff) was found to be 0.0029 s⁻¹ and the on-rate (kon) was 180000 M⁻¹ s⁻¹. Further, the “EC50 (read off the curve)” value in [7] is roughly 0.7 mg/L. In assay [4], the Kd was 2.9 nM, the dissociation rate constant (koff) came to 0.003 s⁻¹ and the kon was 1e+06 M⁻¹ s⁻¹. Also, in [8], the “EC50 (read off the curve)” value is roughly 0.4 mg/L.

B6: Antibody Ab43 (antibody, V domains shown)
VH: B1 VH with L100V
VL: B1 VL with H35K, N39L
Take B6: the “EC50 (read off the curve)” value in assay [9] was roughly 1 mg/L; in [1], roughly 0.5 mg/L; in assay [10], roughly 0.9 mg/L; in [7], roughly 0.7 mg/L; in [8], roughly 0.6 mg/L. Moreover, in assay [2], the Kd stood at 6.5 nM. Moreover, the dissociation rate constant (koff) in assay [2] is 0.0041 s⁻¹. Also, the association rate constant (kon) in [2] stood at 630000 M⁻¹ s⁻¹.

B7: Antibody 29-0 (antibody, V domains shown)
VH: B1 VH with H52Y, S54G, D55A, L100V
VL: B1 VL with H35K
notes: also called mAb 29-0
As for B7, in [3], the Kd turned out to be 28 nM, the off-rate (koff) is 0.0042 s⁻¹ and the kon came to 150000 M⁻¹ s⁻¹. For the same molecule, in assay [7], the 50% effective concentration (EC50 (read off the curve)) was roughly 0.9 mg/L. The “EC50 (read off the curve)” value in [11] was roughly 0.6 mg/L. Further, the “EC50 (read off the curve)” value in [8] was roughly 0.6 mg/L.

B8: Antibody Ab32 (antibody, V domains shown)
VH: B1 VH
VL: B1 VL with H35K
Turning to B8, the “EC50 (read off the curve)” value in [1] is roughly 1 mg/L. In assay [2], the dissociation constant (Kd) amounted to 6.4 nM, the koff was 0.0036 s⁻¹ and the kon came out at 560000 M⁻¹ s⁻¹.

B9: Antibody Ab28 (antibody, V domains shown)
VH: B1 VH with H52Y, S54G, L100V
VL: B1 VL with H35K
notes: also called Mab 28
Regarding B9, the “EC50 (read off the curve)” value in assay [1] is roughly 0.7 mg/L; in [7], roughly 0.8 mg/L; in assay [8], roughly 0.5 mg/L. Further, the dissociation constant (Kd) in assay [3] stood at 12 nM; in assay [4] it was 4 nM. Further, the figures for the koff in assay [3] and in [4] were 0.0026 s⁻¹ and 0.0045 s⁻¹, respectively. Besides, the kon in [3] was 220000 M⁻¹ s⁻¹; in assay [4], 1.2e+06 M⁻¹ s⁻¹.
